# Assays:
# MBP-RhlR:mBTL = MBP-RhlR:mBTL (Pseudomonas aeruginosa, UniProt P54292 1-241); experiment: ITC; mBTL; EMSA: 20 mM Tris-HCl pH 8, 50 mM KCl, 1 mM EDTA, 1 mM DTT, 1.5 mg/mL poly-IC, 50 ug/mL BSA, 10% glycerol, room temp 15 min; ITC: 25 C, S200 buffer (200 mM NaCl, 20 mM Tris-HCl pH 8, 1 mM DTT), 20 uM DNA titrated into 1 uM protein; details: protein: recombinant; tags: N-terminal MBP (pMALC2x); chain copies: 2; duplex not explicitly stated
# MBP-RhlR* = MBP-RhlR* (Pseudomonas aeruginosa, UniProt P54292 1-241, Y64F;W68F;V133F); experiment: ITC; no ligand; EMSA: 20 mM Tris-HCl pH 8, 50 mM KCl, 1 mM EDTA, 1 mM DTT, 1.5 mg/mL poly-IC, 50 ug/mL BSA, 10% glycerol, room temp 15 min; ITC: 25 C, S200 buffer (200 mM NaCl, 20 mM Tris-HCl pH 8, 1 mM DTT), 20 uM DNA titrated into 1 uM protein; details: protein: recombinant; tags: N-terminal MBP (pMALC2x); chain copies: 2; duplex not explicitly stated
binder,measurement,setting,value
rhl-box consensus (dsDNA) DNA 1: ACCTGCCAGATTTCGCAGGT DNA 2: ACCTGCGAAATCTGGCAGGT,Kd,MBP-RhlR:mBTL,23 nM
same,Kd,MBP-RhlR*,34 nM

# Reference: PMC6564026, “An autoinducer-independent RhlR quorum-sensing receptor enables analysis of RhlR regulation”
